From WO2005092925A2

Legend:
Experiment in all cases: AlphaScreen
[1] = molecular target: human FcRn (human) (UniProt P55899)
[2] = molecular target: human FcγRI (human) (UniProt P12314)
[3] = molecular target: human FcγRIIa H131 (human) (UniProt P12318)
[4] = molecular target: human FcγRIIb (human) (UniProt P31994)
[5] = molecular target: human FcγRIIc (human) (UniProt P31995)
[6] = molecular target: human V158 FcγRIIIa, extracellular region fused with GST (human) (UniProt P08637)
Sequence of UniProt P08637 (P08637 17-208 F176V): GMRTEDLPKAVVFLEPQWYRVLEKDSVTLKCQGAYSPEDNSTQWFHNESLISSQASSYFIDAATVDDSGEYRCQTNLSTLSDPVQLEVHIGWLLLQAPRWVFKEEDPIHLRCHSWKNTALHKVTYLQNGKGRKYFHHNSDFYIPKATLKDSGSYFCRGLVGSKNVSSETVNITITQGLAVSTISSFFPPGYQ

Sequence of UniProt P12318 (P12318 36-218 limits assumed): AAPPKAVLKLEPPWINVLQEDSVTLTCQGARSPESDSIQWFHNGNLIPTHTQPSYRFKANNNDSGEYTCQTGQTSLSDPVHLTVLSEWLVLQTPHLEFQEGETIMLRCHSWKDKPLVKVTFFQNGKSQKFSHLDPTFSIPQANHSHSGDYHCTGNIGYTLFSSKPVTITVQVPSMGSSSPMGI
Sequence of UniProt P55899 (P55899 24-297 limits assumed): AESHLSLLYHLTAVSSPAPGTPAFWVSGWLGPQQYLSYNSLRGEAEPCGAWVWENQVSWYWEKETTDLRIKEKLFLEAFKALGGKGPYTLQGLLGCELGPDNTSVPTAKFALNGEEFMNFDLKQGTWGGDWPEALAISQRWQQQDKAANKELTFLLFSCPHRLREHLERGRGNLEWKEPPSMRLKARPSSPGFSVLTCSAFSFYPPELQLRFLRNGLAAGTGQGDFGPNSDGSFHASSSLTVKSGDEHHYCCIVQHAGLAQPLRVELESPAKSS
Sequence of UniProt P31994 (P31994 43-217 limits assumed): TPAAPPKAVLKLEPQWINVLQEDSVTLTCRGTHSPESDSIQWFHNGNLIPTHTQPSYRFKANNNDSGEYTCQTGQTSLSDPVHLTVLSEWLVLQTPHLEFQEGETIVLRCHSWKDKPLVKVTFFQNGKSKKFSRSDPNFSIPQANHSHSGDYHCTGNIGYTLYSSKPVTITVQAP
Sequence of UniProt P31995 (P31995 43-217 limits assumed): as the sequence (P31994 43-217 limits assumed) above
Sequence of UniProt P12314 (P12314 16-288 limits assumed): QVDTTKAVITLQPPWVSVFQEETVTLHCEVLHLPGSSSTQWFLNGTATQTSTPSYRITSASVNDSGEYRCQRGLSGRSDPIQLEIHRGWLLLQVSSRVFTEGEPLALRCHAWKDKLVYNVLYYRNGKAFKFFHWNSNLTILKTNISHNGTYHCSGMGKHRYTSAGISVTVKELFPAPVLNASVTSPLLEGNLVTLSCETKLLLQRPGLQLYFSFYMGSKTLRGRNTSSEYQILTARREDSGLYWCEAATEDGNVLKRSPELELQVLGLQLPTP

Fold WT [1]	Fold WT [2]	Fold WT [3]	Fold WT [4]	Fold WT [5]	Fold WT [6]	Substance
1.13 fold	0.29 fold	0.67 fold	0.49 fold	0.85 fold	0.7 fold	Campath E233M (antibody)
1.56 fold		1.89 fold	0.95 fold	0.48 fold		Campath G236T (antibody)
0.52 fold	0.5 fold	0.62 fold	0.41 fold	0.58 fold	0.58 fold	Campath A231K (antibody)
1.45 fold	1.15 fold	1.68 fold	1.59 fold	1.61 fold	0.75 fold	Campath P228Y (antibody)
1.19 fold	0.38 fold	0.87 fold	1.49 fold	1.52 fold	0.73 fold	Campath L234R (antibody)
1.16 fold	1.04 fold	0.99 fold	1.13 fold	0.75 fold	0.48 fold	Campath P230G (antibody)
1.55 fold	1.91 fold	1.31 fold	1.14 fold	1.13 fold	1.28 fold	Campath P228K (antibody)
1.01 fold	2.07 fold	1.25 fold	2.34 fold	1.47 fold		Campath P230E (antibody)
0.58 fold	0.44 fold	0.8 fold	0.85 fold	0.62 fold	0.35 fold	Campath L234A (antibody)
1.1 fold	0.17 fold	0.62 fold	0.31 fold	0.37 fold	0.36 fold	Campath E233S (antibody)
0.93 fold	0.1 fold	1.23 fold	0.6 fold	0.71 fold	0.46 fold	Campath E233A (antibody)
0.68 fold	1.91 fold	1.51 fold	1.49 fold	0.96 fold	0.99 fold	Campath P232Y (antibody)
1.64 fold	0.28 fold	0.86 fold	0.82 fold	0.7 fold	0.35 fold	Campath E233W (antibody)
0.74 fold	0.16 fold	0.5 fold	0.34 fold	0.46 fold	0.48 fold	Campath E233N (antibody)
2.09 fold	0.36 fold	1.21 fold	0.94 fold	0.74 fold	1.21 fold	Campath E233G (antibody)
0.86 fold	0.13 fold	1.16 fold	1.16 fold	0.89 fold	0.78 fold	Campath L235P (antibody)
1.41 fold	0.15 fold	0.11 fold	0.24 fold	0.15 fold	0.1 fold	Campath G236P (antibody)
1.77 fold	1 fold	2.6 fold	0.96 fold	0.54 fold	0.98 fold	Campath P228G (antibody)
0.96 fold	0.42 fold	0.56 fold	1.28 fold	1.34 fold	0.63 fold	Campath L235K (antibody)
0.53 fold	0.35 fold	0.71 fold	1.93 fold	1.15 fold	0.62 fold	Campath L235R (antibody)
0.46 fold	0.11 fold	0.9 fold	0.77 fold	0.5 fold	0.32 fold	Campath L235W (antibody)
0.61 fold	0.19 fold	0.52 fold	0.27 fold	0.39 fold	0.51 fold	Campath E233Q (antibody)
0.78 fold	0.34 fold	0.63 fold	0.83 fold	0.8 fold	1.06 fold	Campath L235E (antibody)
0.97 fold	0.34 fold	0.62 fold	0.84 fold	0.78 fold	0.41 fold	Campath L235A (antibody)
